From patent US20260193326A1

Legend:
Assay in all cases: SPR, AAV on CM5 chip
[1] = target: AAV5 (adeno-associated virus serotype 5)
[2] = target: AAV8 (adeno-associated virus serotype 8)
[3] = target: AAV9 (adeno-associated virus serotype 9)

Row | Binder | Kd [1] [nM] | koff [1] [s⁻¹] | kon [1] [M⁻¹ s⁻¹] | Kd [2] [nM] | koff [2] [s⁻¹] | kon [2] [M⁻¹ s⁻¹] | Kd [3] [nM] | koff [3] [s⁻¹] | kon [3] [M⁻¹ s⁻¹]
1 | A4-D5 (protein) VQLQESGGGLVQPGGSLRLSCVASGSSFSINTMGWYRRAPGKQRELVATVTRDGSTNYANSVKGRFTISRDNAKNTVYLQMNSLRPEDTAVYYCHVDEVRQSSWTTSNLWGQGTQVTVSSGGGGSGGGGSGGGGSVQLQESGGGLVQPGGSLRLSCVASGSSFSINTMGWYRRAPGKQRELVATVTRDGSTNYANSVKGRFTISRDNAKNTVYLQMNSLRPEDTAVYYCHVDEVRQSSWTTSNLWGQGTQVTVSSGGGGSGGGGSGGGGSVQLQESGGGLVQPGGSLRLSCVASGSSFSINTMGWYRQAPGKQRELVATVTRDGSTNYANSVKGRFTISRDNAKNTVYLQMNSLRPEDTAVYYCHVDEVRQSSWTTSNLWGQGTQVTVSSGGGGSGGGGSGGGGSVQLQESGGGLVQPGGSLRLSCVASGSSFSINTMGWYRRAPGKQRELVATVTRDGSTNYANSVKGRFTISRDNAKNTVYLQMNSLRPEDTAVYYCHVDEVRQSSWTTSNLWGQGTQVTVSS | 0.318 | 1.34e-05 | 42100 | 0.0836 | 5e-06 | 59800 | 0.117 | 4.3e-06 | 36900
2 | A4-D6 (bispecific antibody) VQLQESGGGLVQTGGSLRLSCAASGRAFSLNTMGWYRQAPGKWRELVATVTRGGSTNYAGSVKGRFTISRDNAKNTVYLQMNNLRPEDTAVYYCHVDEVRESSWTTSNLWGQGTQVTVSSGGGGSGGGGSGGGGSVQLQESGGGLVQTGGSLRLSCAASGRAFSLNTMGWYRQAPGKWRELVATVTRGGSTNYAGSVKGRFTISRDNAKNTVYLQMNNLRPEDTAVYYCHVDEVRESSWTTSNLWGQGTQVTVSSGGGGSGGGGSGGGGSVQLQESGGGLVQPGGSLRLSCAASGSIFTINSMGWYRQAPGKWRELVATVTRGGNTNYANSVKGRFTISRDNAKNTVYLQMNTLRPEDTAVYYCHLDEVRDSSWTTSNLWGQGTQVTVSSGGGGSGGGGSGGGGSVQLQESGGGLVQPGGSLRLSCAASGSIFSINSMGWYRQAPGKWRELVATVTRGGSTNYANSVKGRFTISRDNAKNTVYLQMNTLRPEDTAVYYCHLDEVRDSSWTTSNLWGQGTQVTVSS | 0.273 | 1.18e-05 | 43300 | 1.02 | 1.63e-05 | 16000 | 0.155 | 3.4e-06 | 21900
3 | A4-D1 (VHH) VQLQESGGGLAQAGGSLRLSCAASGRGFSINTMGWYRQAPGKQRELVAAVTRGGTTNYADSVKGRFTISRDNAKNTVYLQMNSLRPEDTAVYYCHVDEVRQSSWTTSNLWGQGTQVTVSSGGGGSGGGGSGGGGSVQLQESGGGLAQAGGSLRLSCAASGRGFSINTMGWYRQAPGKQRELVAAVTRGGTTNYADSVKGRFTISRDNAKNTVYLQMNSLRPEDTAVYYCHVDEVRQSSWTTSNLWGQGTQVTVSSGGGGSGGGGSGGGGSVQLQESGGGLAQAGGSLRLSCAASGRGFSINTMGWYRQAPGKQRELVAAVTRGGTTNYADSVKGRFTISRDNAKNTVYLQMNSLRPEDTAVYYCHVDEVRQSSWTTSNLWGQGTQVTVSSGGGGSGGGGSGGGGSVQLQESGGGLAQAGGSLRLSCAASGRGFSINTMGWYRQAPGKQRELVAAVTRGGTTNYADSVKGRFTISRDNAKNTVYLQMNSLRPEDTAVYYCHVDEVRQSSWTTSNLWGQGTQVTVSS | 0.0576 | 2.2e-06 | 38200 | 0.0543 | 1.81e-05 | 334000 | 0.0533 | 3.1e-06 | 58200
4 | A4-D3 (VHH) VQLQESGGGLAQAGGSLRLSCAASGRGFSINTMGWYRQAPGKQRELVAAVTRGGTTNYADSVKGRFTISRDNAKNTVYLQMNSLRPEDTAVYYCHVDEVRQSSWTTSNLWGQGTQVTVSSGGGGSGGGGSGGGGSVQLQESGGGLAQAGGSLRLSCAASGRGFSINTMGWYRQAPGKQRELVAAVTRGGTTNYADSVKGRFTISRDNAKNTVYLQMNSLRPEDTAVYYCHVDEVRQSSWTTSNLWGQGTQVTVSSGGGGSGGGGSGGGGSVQLQESGGGLAQAGGSLRLSCAASGRGFSINTMGWYRQAPGKQRELVAAVTRGGTTNYADSVKGRFTISRDNAKNTVYLQMNSLRPEDTAVYYCHVDEVRQSSWTTSNLWGQGTQVTVSSGGGGSGGGGSGGGGSVQLQESGGGLVQPGGSLRLSCAASGRGFSINTMGWYRQAPGKQRELVAAVTRGGTTNYADSVKGRFTISRDNAKNTVYLQMNSLRPEDTAVYYCHVDEVRQSSWTTSNLWGQGTQVTVSS | 0.209 | 3.6e-06 | 17300 | 0.0363 | 1.5e-06 | 41400 | 0.0707 | 3.2e-06 | 45300
5 | A4-D2 (VHH) VQLQESGGGLVQAGGSLRLSCAASGRGFSINTMGWYRQAPGKQRELVAAVTRGGTTNYADSVKGRFTISRDNAKNTVYLQMNSLRPEDTAVYYCHVDEVRQSSWTTSNLWGQGTQVTVSSGGGGSGGGGSGGGGSVQLQESGGGLVQAGGSLRLSCAASGRGFSINTMGWYRQAPGKQRELVAAVTRGGTTNYADSVKGRFTISRDNAKNTVYLQMNSLRPEDTAVYYCHVDEVRQSSWTTSNLWGQGTQVTVSSGGGGSGGGGSGGGGSVQLQESGGGLVQAGGSLRLSCAASGRGFSINTMGWYRQAPGKQRELVAAVTRGGTTNYADSVKGRFTISRDNAKNTVYLQMNSLRPEDTAVYYCHVDEVRQSSWTTSNLWGQGTQVTVSSGGGGSGGGGSGGGGSVQLQESGGGLVQAGGSLRLSCAASGRGFSINTMGWYRQAPGKQRELVAAVTRGGTTNYADSVKGRFTISRDNAKNTVYLQMNSLRPEDTAVYYCHVDEVRQSSWTTSNLWGQGTQVTVSS | 0.0996 | 5.7e-06 | 57200 | 0.0821 | 3.6e-06 | 43900 | 0.304 | 9e-06 | 29600
6 | A4-D4 (VHH) VQLQESGGGLAQAGGSLRLSCAASGRGFSINTMGWYRQAPGKQRELVAAVTRGGTTNYADSVKGRFTISRDNAKNTVYLQMNSLRPEDTAVYYCHVDEVRQSSWTTSNLWGQGTQVTVSSGGGGSGGGGSGGGGSVQLQESGGGLVQPGGSLRLSCAASGRGFSINTMGWYRQAPGKQRELVAAVTRGGTTNYADSVKGRFTISRDNAKNTVYLQMNSLRPEDTAVYYCHVDEVRQSSWTTSNLWGQGTQVTVSSGGGGSGGGGSGGGGSVQLQESGGGLAQAGGSLRLSCAASGRGFSINTMGWYRQAPGKQRELVAAVTRGGTTNYADSVKGRFTISRDNAKNTVYLQMNSLRPEDTAVYYCHVDEVRQSSWTTSNLWGQGTQVTVSSGGGGSGGGGSGGGGSVQLQESGGGLAQAGGSLRLSCAASGRGFSINTMGWYRQAPGKQRELVAAVTRGGTTNYADSVKGRFTISRDNAKNTVYLQMNSLRPEDTAVYYCHVDEVRQSSWTTSNLWGQGTQVTVSS | 0.657 | 1.73e-05 | 26300 | 0.0802 | 1.7e-06 | 21200 | 0.073 | 2.1e-06 | 28800
